Measured values from FireProtDB (doi:10.1021/bi020461s).

B1: Glutamate dehydrogenase, P96110 (parent)
chain: MPEKSLYEMAVEQFNRAASLMDLESDLAEVLRRPKRVLIVEFPVRMDDGHVEVFTGYRVQHNVARGPAKGGIRYHPDVTLDEVKALAFWMTWKTAVMNLPFGGGKGGVRVDPKKLSRNELERLSRRFFSEIQVIIGPYNDIPAPDVNTNADVMAWYMDTYSMNVGHTVLGIVTGKPVELGGSKGREEATGRGVKVCAGLAMDVLGIDPKKATVAVQGFGNVGQFAALLISQELGSKVVAVSDSRGGIYNPEGFDVEELIRYKKEHGTVVTYPKGERITNEELLELDVDILVPAALEGAIHAGNAERIKAKAVVEGANGPTTPEADEILSRRGILVVPDILANAGGVTVSYFEWVQDLQSFFWDLDQVRNALEKMMKGAFNDVMKVKEKYNVDMRTAAYILAIDRVAYATKKRGIYP

Variants of: B1
Settings: Thermotoga maritima (strain ATCC 43589 / DSM 3109 / JCM 10099 / NBRC 100826 / MSB8), pH 7, CD, sodium phosphate 20 mM, reversible: yes, structure 1B26, whole UniProt chain shown

In the case of MPEKSLYEMAVEQFNRAASLMDLESDLAEVLRRPKRVLIVEFPVRMDDGHVEVFTGYRVQHNVARGPAKGGIRYHPDVTLDEVKALAFWMTWKTAVMNLPFGGGKGGVRVDPKKLSRNELERLSRRFFSEIQVIIGPYNDIPAPDVNTNADVMAWYMDTYSMNVGHTVLGIVTGKPVELGGSKGREEATGAGVKVCAGLAMDVLGIDPKKATVAVQGFGNVGQFAALLISQALGSKVVAVSDSRGGIYNPEGFDVEELIRYKKEHGTVVTYPKGERITNEELLELDVDILVPAALEGAIHAGNAERIKAKAVVEGANGPTTPEADEILSRRGILVVPDILANAGGVTVSYFEWVQDLQSFFWDLDQVRNALEKMMKGAFNDVMKVKEKYNVDMRTAAYILAIDRVAYATKKRGIYP [R191A E232A], the “ddG of mutation (higher = less stable)” value (20 °C, GdnHCl) is reported as 0.86 kcal/mol, the denaturant m value (20 °C, GdnHCl) is reported as 3.08 kcal/mol/M and the “denaturant midpoint (higher = more stable)” value (shortened to “denaturant midpoint”) (20 °C, GdnHCl) is reported as 1.44 M. The unfolding free energy (20 °C, GdnHCl) was 4.26 kcal/mol, the “ddG of mutation (higher = less stable)” value (20 °C, Urea) was 0.53 kcal/mol and the denaturant m value (20 °C, Urea) was 1.53 kcal/mol/M. The “denaturant midpoint” value (20 °C, Urea) was 2.96 M, the unfolding free energy (20 °C, Urea) was 4.32 kcal/mol and the “ddG of mutation (higher = less stable)” value (69.5 °C, Thermal) was 0.15 kcal/mol. The Tm (Thermal) was 68.5 °C, the “change of melting temperature, mutant - wild type (higher = more stable)” value (shortened to “change of melting temperature, mutant”) (Thermal) was -1 °C and the “unfolding enthalpy (van 't Hoff)” value (Thermal) was 44.6 kcal/mol.

In the case of MPEKSLYEMAVEQFNRAASLMDLESDLAEVLRRPKRVLIVEFPVRMDDGHVEVFTGYRVQHNVARGPAKGGIRYHPDVTLDEVKALAFWMTWKTAVMNLPFGGGKGGVRVDPKKLSRNELERLSRRFFSEIQVIIGPYNDIPAPDVNTNADVMAWYMDTYSMNVGHTVLGIVTGKPVELGGSKGREEATGAGVKVCAGLAMDVLGIDPKKATVAVQGFGNVGQFAALLISQELGSKVVAVSDSRGGIYNPEGFDVEELIRYKKEHGTVVTYPKGERITNEELLELDVDILVPAALEGAIHAGNAERIKAKAVVEGANGPTTPEADEILSRRGILVVPDILANAGGVTVSYFEWVQDLQSFFWDLDQVRNALEKMMKGAFNDVMKVKEKYNVDMRTAAYILAIDRVAYATKKRGIYP [R191A], the “ddG of mutation (higher = less stable)” value (20 °C, GdnHCl) is reported as 0.41 kcal/mol, the denaturant m value (20 °C, GdnHCl) is reported as 2.63 kcal/mol/M and the “denaturant midpoint” value (20 °C, GdnHCl) is reported as 1.59 M. For the same variant, the unfolding free energy (20 °C, GdnHCl) was 4.71 kcal/mol, the “ddG of mutation (higher = less stable)” value (20 °C, Urea) was 0.32 kcal/mol and the denaturant m value (20 °C, Urea) was 1.7 kcal/mol/M. For the same variant, the “denaturant midpoint” value (20 °C, Urea) was 3.1 M, the unfolding free energy (20 °C, Urea) was 4.53 kcal/mol and the “ddG of mutation (higher = less stable)” value (69.5 °C, Thermal) was 0.34 kcal/mol. For the same variant, the Tm (Thermal) was 67.3 °C, the “change of melting temperature, mutant” value (Thermal) was -2.2 °C and the “unfolding enthalpy (van 't Hoff)” value (Thermal) was 49.5 kcal/mol.

In the case of MPEKSLYEMAVEQFNRAASLMDLESDLAEVLRRPKRVLIVEFPVRMDDGHVEVFTGYRVQHNVARGPAKGGIRYHPDVTLDEVKALAFWMTWKTAVMNLPFGGGKGGVRVDPKKLSRNELERLSRRFFSEIQVIIGPYNDIPAPDVNTNADVMAWYMDTYSMNVGHTVLGIVTGKPVELGGSKGREEATGRGVAVCAGLAMDVLGIDPKKATVAVQGFGNVGQFAALLISQELGSKVVAVSDSRGGIYNPEGFDVEELIRYKKEHGTVVTYPKGERITNEELLELDVDILVPAALEGAIHAGNAERIKAKAVVEGANGPTTPEADEILSRRGILVVPDILANAGGVTVSYFEWVQDLQSFFWDLDQVRNALEKMMKGAFNDVMKVKEKYNVDMRTAAYILAIDRVAYATKKRGIYP [K194A], the “ddG of mutation (higher = less stable)” value (20 °C, GdnHCl) is reported as -0.98 kcal/mol, the denaturant m value (20 °C, GdnHCl) is reported as 2.74 kcal/mol/M and the “denaturant midpoint” value (20 °C, GdnHCl) is reported as 2.06 M. For the same variant, the unfolding free energy (20 °C, GdnHCl) was 6.1 kcal/mol, the “ddG of mutation (higher = less stable)” value (69.5 °C, Thermal) was -0.23 kcal/mol and the Tm (Thermal) was 71 °C. The “change of melting temperature, mutant” value (Thermal) was 1.5 °C and the “unfolding enthalpy (van 't Hoff)” value (Thermal) was 53.8 kcal/mol.

For MPEKSLYEMAVEQFNRAASLMDLESDLAEVLRRPKRVLIVEFPVRMDDGHVEVFTGYRVQHNVARGPAKGGIRYHPDVTLDEVKALAFWMTWKTAVMNLPFGGGKGGVRVDPKKLSRNELERLSRRFFSEIQVIIGPYNDIPAPDVNTNADVMAWYMDTYSMNVGHTVLGIVTGKPVELGGSKGREEATGAGVAVCAGLAMDVLGIDPKKATVAVQGFGNVGQFAALLISQALGSKVVAVSDSRGGIYNPEGFDVEELIRYKKEHGTVVTYPKGERITNEELLELDVDILVPAALEGAIHAGNAERIKAKAVVEGANGPTTPEADEILSRRGILVVPDILANAGGVTVSYFEWVQDLQSFFWDLDQVRNALEKMMKGAFNDVMKVKEKYNVDMRTAAYILAIDRVAYATKKRGIYP [R191A E232A K194A], the “ddG of mutation (higher = less stable)” value (20 °C, GdnHCl) was -0.03 kcal/mol, the denaturant m value (20 °C, GdnHCl) was 2.72 kcal/mol/M and the “denaturant midpoint” value (20 °C, GdnHCl) was 1.74 M. The unfolding free energy (20 °C, GdnHCl) was 5.15 kcal/mol, the “ddG of mutation (higher = less stable)” value (20 °C, Urea) was -0.04 kcal/mol and the denaturant m value (20 °C, Urea) was 1.42 kcal/mol/M. The “denaturant midpoint” value (20 °C, Urea) was 3.35 M, the unfolding free energy (20 °C, Urea) was 4.89 kcal/mol and the “ddG of mutation (higher = less stable)” value (69.5 °C, Thermal) was -0.2 kcal/mol. The Tm (Thermal) was 70.8 °C, the “change of melting temperature, mutant” value (Thermal) was 1.3 °C and the “unfolding enthalpy (van 't Hoff)” value (Thermal) was 50.6 kcal/mol.
